Experimental data from the Human Domainome abundance scans (Beltran et al. 2025).
± gives the uncertainty stated by the source.

B1: Chromodomain-helicase-DNA-binding protein 5, residues 411 to 463; numbered along this chain, Q8TDI0 (parent)
chain: EEDDHMEFCRVCKDGGELLCCDACPSSYHLHCLNPPLPEIPNGEWLCPRCTCP

Variants of: B1
Experiment: abundance fitness (aPCA) (normalised: wild type 0, dead -1); higher = more abundant; growth selection in yeast, the domain comes from the species named
Conditions: Homo sapiens
Work on L30R yielded an abundance fitness of -0.018 ± 0.049.
L30P showed an abundance fitness of 0.087 ± 0.057.
L30Q gave an abundance fitness of 0.016 ± 0.063.
Work on L30E yielded an abundance fitness of -0.142 ± 0.078.
With L30Y the abundance fitness was -0.019 ± 0.08.
For L30D, the abundance fitness was -0.013 ± 0.075.
L30W showed an abundance fitness of -0.201 ± 0.049.
For L30G, the abundance fitness was 0.002 ± 0.048.
In the case of L30K, the abundance fitness is reported as -0.043 ± 0.071.
L30F showed an abundance fitness of -0.06 ± 0.044.
With L30A the abundance fitness was 0.072 ± 0.061.
Variant L30C has an abundance fitness of -0.038 ± 0.063.
Work on H31F yielded an abundance fitness of 0.516 ± 0.14.
Variant H31Y has an abundance fitness of -0.455 ± 0.12.
Variant H31N has an abundance fitness of 0.121 ± 0.069.
H31P gave an abundance fitness of -0.406 ± 0.13.
H31L showed an abundance fitness of -0.246 ± 0.086.
Work on H31I yielded an abundance fitness of -0.044 ± 0.13.
H31A showed an abundance fitness of -0.092 ± 0.084.
With H31V the abundance fitness was -0.268 ± 0.084.
In the case of H31W, the abundance fitness is reported as -0.361 ± 0.11.
Work on H31M yielded an abundance fitness of -0.088 ± 0.1.
Work on H31Q yielded an abundance fitness of -0.436 ± 0.15.
Variant H31G has an abundance fitness of 0.089 ± 0.079.
Work on H31E yielded an abundance fitness of 0.074 ± 0.093.
For H31C, the abundance fitness was -0.421 ± 0.14.
Variant H31S has an abundance fitness of -0.075 ± 0.08.
Work on H31T yielded an abundance fitness of -0.16 ± 0.1.
In the case of H31R, the abundance fitness is reported as 0.05 ± 0.049.
Variant H31D has an abundance fitness of 0.072 ± 0.12.
Variant H31K has an abundance fitness of -0.029 ± 0.1.
In the case of P35V, the abundance fitness is reported as -0.145 ± 0.07.
For P35A, the abundance fitness was -0.299 ± 0.057.
With P35G the abundance fitness was -0.182 ± 0.046.
P35C showed an abundance fitness of -0.371 ± 0.078.
P35I showed an abundance fitness of -0.183 ± 0.068.
P35Y gave an abundance fitness of -0.476 ± 0.099.
P35H showed an abundance fitness of -0.353 ± 0.1.
Variant P35E has an abundance fitness of 0.034 ± 0.079.
Work on P35L yielded an abundance fitness of -0.315 ± 0.071.
Variant P35D has an abundance fitness of -0.246 ± 0.079.
Variant P35Q has an abundance fitness of -0.12 ± 0.063.
P35N gave an abundance fitness of -0.172 ± 0.096.
Variant P35F has an abundance fitness of -0.24 ± 0.049.
With P35S the abundance fitness was -0.23 ± 0.06.
P35W showed an abundance fitness of -0.404 ± 0.052.
With N34R the abundance fitness was -0.039 ± 0.057.
N34P showed an abundance fitness of -0.463 ± 0.14.
Variant N34E has an abundance fitness of -0.036 ± 0.069.
In the case of N34S, the abundance fitness is reported as 0.097 ± 0.06.
With N34F the abundance fitness was 0.066 ± 0.096.
N34K showed an abundance fitness of 0.046 ± 0.1.
N34C gave an abundance fitness of -0.074 ± 0.1.
N34W gave an abundance fitness of -0.204 ± 0.067.
N34Q showed an abundance fitness of 0.021 ± 0.064.
N34T showed an abundance fitness of -0.189 ± 0.099.
N34D showed an abundance fitness of -0.27 ± 0.12.
Variant N34L has an abundance fitness of -0.015 ± 0.048.
N34H gave an abundance fitness of -0.303 ± 0.2.
N34M showed an abundance fitness of -0.221 ± 0.11.
For N34I, the abundance fitness was -0.132 ± 0.15.
N34Y gave an abundance fitness of -0.139 ± 0.17.
N34A showed an abundance fitness of -0.018 ± 0.052.
For N34V, the abundance fitness was -0.067 ± 0.073.
N34G showed an abundance fitness of -0.169 ± 0.063.
For P25I, the abundance fitness was -0.04 ± 0.1.
In the case of P25R, the abundance fitness is reported as 0.087 ± 0.063.
Variant P25E has an abundance fitness of 0.054 ± 0.084.
In the case of P25Y, the abundance fitness is reported as 0.023 ± 0.071.
P25G gave an abundance fitness of 0.085 ± 0.067.
For P25H, the abundance fitness was 0.024 ± 0.09.
In the case of P25F, the abundance fitness is reported as -0.094 ± 0.087.
For P25W, the abundance fitness was -0.067 ± 0.072.
P25A gave an abundance fitness of 0.094 ± 0.07.
Variant P25N has an abundance fitness of -0.025 ± 0.079.
In the case of P25C, the abundance fitness is reported as 0.087 ± 0.061.
For P25V, the abundance fitness was 0.03 ± 0.076.
For P25T, the abundance fitness was 0.044 ± 0.065.
P25M gave an abundance fitness of -0.11 ± 0.077.
With P25Q the abundance fitness was -0.118 ± 0.089.
In the case of P25L, the abundance fitness is reported as -0.157 ± 0.067.
For P25S, the abundance fitness was 0.022 ± 0.055.
With P25K the abundance fitness was 0.058 ± 0.075.
D22G showed an abundance fitness of 0.049 ± 0.05.
D22K gave an abundance fitness of 0.108 ± 0.052.
Work on D22P yielded an abundance fitness of 0.008 ± 0.055.
For D22V, the abundance fitness was -0.085 ± 0.046.
D22M gave an abundance fitness of 0.051 ± 0.066.
Variant D22S has an abundance fitness of 0.034 ± 0.041.
With D22Y the abundance fitness was -0.059 ± 0.044.
Work on D22L yielded an abundance fitness of -0.026 ± 0.044.
With D22T the abundance fitness was 0.038 ± 0.053.
For D22N, the abundance fitness was 0.093 ± 0.053.
For D22Q, the abundance fitness was 0.099 ± 0.048.
D22R gave an abundance fitness of 0.071 ± 0.044.
With D22W the abundance fitness was -0.082 ± 0.064.
With D22H the abundance fitness was 0.005 ± 0.054.
Work on D22I yielded an abundance fitness of -0.04 ± 0.068.
Variant N42F has an abundance fitness of -0.266 ± 0.083.
Variant N42I has an abundance fitness of -0.346 ± 0.19.
N42A showed an abundance fitness of 0.011 ± 0.068.
In the case of N42G, the abundance fitness is reported as 0.12 ± 0.06.
N42C showed an abundance fitness of 0.033 ± 0.1.
Variant N42D has an abundance fitness of -0.028 ± 0.049.
For N42K, the abundance fitness was -0.144 ± 0.093.
In the case of N42H, the abundance fitness is reported as -0.054 ± 0.1.
Variant N42E has an abundance fitness of -0.022 ± 0.071.
C32I gave an abundance fitness of -0.979 ± 0.19.
Work on C32R yielded an abundance fitness of -1 ± 0.083.
In the case of C32M, the abundance fitness is reported as -0.736 ± 0.15.
C32S gave an abundance fitness of -1.05 ± 0.14.
Variant C32G has an abundance fitness of -0.985 ± 0.084.
With C32P the abundance fitness was -0.638 ± 0.14.
For C32N, the abundance fitness was -0.395 ± 0.13.
Variant C32V has an abundance fitness of -0.963 ± 0.093.
Work on C32A yielded an abundance fitness of -0.768 ± 0.11.
For C32E, the abundance fitness was -0.264 ± 0.12.
For C32F, the abundance fitness was -0.758 ± 0.21.
Variant C32L has an abundance fitness of -0.716 ± 0.097.
C32W gave an abundance fitness of -0.967 ± 0.13.
C32Y gave an abundance fitness of -0.846 ± 0.18.
Variant C32K has an abundance fitness of -0.66 ± 0.14.
With C32Q the abundance fitness was -0.72 ± 0.047.
Variant H29P has an abundance fitness of -0.732 ± 0.15.
In the case of H29M, the abundance fitness is reported as -0.87 ± 0.15.
With H29L the abundance fitness was -0.528 ± 0.076.
Work on H29W yielded an abundance fitness of -1.25 ± 0.26.
Work on H29S yielded an abundance fitness of -0.825 ± 0.14.
With H29I the abundance fitness was -1.2 ± 0.49.
With H29V the abundance fitness was -0.882 ± 0.11.
H29T showed an abundance fitness of -1.14 ± 0.41.
In the case of H29K, the abundance fitness is reported as -1.06 ± 0.25.
H29R showed an abundance fitness of -0.741 ± 0.062.
For H29G, the abundance fitness was -0.825 ± 0.063.
With H29Y the abundance fitness was -0.652 ± 0.26.
Work on H29C yielded an abundance fitness of -0.164 ± 0.082.
With H29F the abundance fitness was -0.765 ± 0.27.
P41T showed an abundance fitness of 0.002 ± 0.073.
In the case of P41A, the abundance fitness is reported as -0.144 ± 0.087.
Work on P41M yielded an abundance fitness of -0.262 ± 0.091.
For P41Q, the abundance fitness was -0.051 ± 0.11.
P41S gave an abundance fitness of 0.047 ± 0.078.
P41G showed an abundance fitness of 0.064 ± 0.078.
P41I showed an abundance fitness of -0.159 ± 0.14.
For P41R, the abundance fitness was -0.004 ± 0.045.
Work on P41W yielded an abundance fitness of -0.393 ± 0.11.
P41D gave an abundance fitness of 0.246 ± 0.12.
P41V showed an abundance fitness of 0.043 ± 0.069.
With P41Y the abundance fitness was -0.043 ± 0.2.
In the case of P41N, the abundance fitness is reported as 0.168 ± 0.15.
P41L gave an abundance fitness of -0.019 ± 0.059.
P36Y showed an abundance fitness of -0.838 ± 0.22.
In the case of P36S, the abundance fitness is reported as -0.023 ± 0.066.
Work on P36K yielded an abundance fitness of 0.088 ± 0.11.
In the case of P36A, the abundance fitness is reported as 0.099 ± 0.08.
P36Q gave an abundance fitness of 0.089 ± 0.1.
With P36I the abundance fitness was 0.125 ± 0.12.
For P36E, the abundance fitness was -0.194 ± 0.1.
P36F gave an abundance fitness of -0.091 ± 0.12.
For P36C, the abundance fitness was -0.084 ± 0.088.
For P36L, the abundance fitness was -0.215 ± 0.055.
With P36M the abundance fitness was -0.026 ± 0.082.
P36V showed an abundance fitness of 0.066 ± 0.088.
With P36H the abundance fitness was -0.211 ± 0.15.
P36G gave an abundance fitness of -0.169 ± 0.06.
P36N gave an abundance fitness of -0.591 ± 0.32.
Work on P36D yielded an abundance fitness of -0.068 ± 0.048.
